Test results published in patent US9217013B2, “Treatment of amyloidoses using myelin basic protein and fragments thereof” (The Research Foundation for the State University of New York, priority 2008, dated 2015).
“Also recorded” adds a separate entry of the source.

Experiments:
[1] = molecular target: Aβ40DI (Homo sapiens, UniProt P05067, D694N/E693Q); assay: Co-immunoprecipitation of MBP with Aβ40DI; format: binding; conditions: purified MBP
Method: (§1) AP peptides were resuspended in Me2SO to 2.5 mM and used at 10.8 μM. MBP was used at 1.56 μM. Proteins were combined in 250 μl of incubation buffer (PBS, 0.05% Tween 20, and 1% BSA). Anti-MBP mAb 382 was added to each sample mixture and incubated for 1 h at 4° C. with rocking. After incubation, 20 μl of washed GammaBind protein G-Sepharose beads (Amersham Biosciences) were added to each mixture, followed by incubation for an additional 1 h at 4° C. with rocking. Beads were separated by centrifugation at 8000×g for 2 min. Supernatants were removed, and beads were washed with 1 ml of incubation buffer. Separation and washing were repeated three times. A final wash was performed in PBS and 0.05% Tween 20 to remove excess BSA. Centrifuged beads were combined with 25 μl of reducing SDS-PAGE loading buffer and heated as described above. 10 μl of each sample/loading buffer mixture was loaded onto 10-20% Tricine gels (Invitrogen) and electrophoresed at 125 V for 35 min. Immunoblotting was carried out as described above using either biotinylated anti-MBP mAb 384 or biotinylated anti-Aβ mAb 3D6 as primary antibody. Experiments were performed in triplicate.

[2] = molecular target: Aβ40WT (Homo sapiens, UniProt P05067); assay: Co-immunoprecipitation of MBP with Aβ40WT; format: binding; conditions: purified MBP
Method: as §1

[3] = molecular target: Dutch/Iowa CAA mutant Aβ40 (Aβ40DI) (Homo sapiens, UniProt P05067, D694N/E693Q); assay: Surface plasmon resonance binding to immobilized Dutch/Iowa Aβ40
Method: (§2) All runs were performed on a Biacore 2000 instrument using 10 mM HEPES (pH 7.4), 150 mM NaCl, 3 mM EDTA, and 0.005% (v/v) Tween 20 as running buffer and diluent. Streptavidiri was conjugated to the surface of three flow cells of a CM5 chip at 10 μl/min using amine coupling chemistry to a final average response level of 1890.2 response units. N-terminally biotinylated Aβ peptides were resuspended in Me2SO to 2.5 mM and serially diluted to 13 nM immediately before application. Biotinylated Aβ40WT and Aβ40DI were bound to individual flow cells at 10 μl/min to achieve an average relative response level of 157.1 response units, leaving flow cell 1 as reference. […] The resultant Rmax of these surfaces was ˜700 response units with MBP as analyte. Purified MBP was passed over all four flow cells at 5, 10, 25, 50, and 100 nM at a flow rate of 30 μl/min for kinetic measurements. […] Surfaces were regenerated with 0.2 M glycine (pH 2.0) and 150 mM NaCl between runs. The resulting sensorgrams were analyzed by BIAanalysis software. Triplicate concentration series were used for each surface.
Using recombinant methodology to express and purify regions of the 18.5 kDa human MBP protein and test their abilities to bind Aβ and inhibit fibrillogenesis, cDNAs were prepared for the following regions of MBP shown in FIG. 3. The cDNAs for MBP fragments were cloned into pTYB11 plasmids containing an ampr gene and transformed into competent E. coli BL21 DE3 cells. Expression of cDNAs in this vector results in a fusion protein containing a chitin binding domain (CBD) as well as a self-cleavable intein protein from S. cerevisiae. CBD-Intein-MBP fusion proteins were captured on chitin beads from the resulting cell lysates. MBP protein fragments were eluted by inducing the cleavage between the C-terminus of the intein and the N-terminus of MBP by exposure to dithiothreitol. […] MBP was further purified by cation exchange chromatography on CM52 resin, resulting in a >95% pure protein preparations. Each of the four MBP fragments were tested for binding to Dutch/Iowa Aβ40 and wild-type Aβ42 by surface plasmon resonance (FIG. 4).

[4] = molecular target: wild-type Aβ40 (Aβ40WT) (Homo sapiens, UniProt P05067); assay: Surface plasmon resonance binding to wild-type Aβ40; conditions: compared with CAA mutant Aβ40
Method: as §2

[5] = molecular target: T1, Aβ42WT (Homo sapiens, UniProt P05067); assay: Co-immunoprecipitation of MBP with Aβ42WT; format: binding
Method: as §1

[6] = molecular target: wild-type Aβ42 (Homo sapiens, UniProt P05067); assay: Thioflavin T fluorescence assay of Aβ42 fibril formation; format: biochemical; conditions: 12.5 μM Aβ42, 1.56 μM MBP
Method: FIG. 19 Thioflavin T analysis for inhibition of Aβ42 fibril formation by MBP. Aβ42 at a concentration of 12.5 μM in PBS in the absence (diamond) or presence of 1.56 μM MBP (triangle) or 1.56 μM […]-lactalbumin (square) as control. The data shown are the mean S.D. of triplicate samples.
The Aβ B binding properties of the exemplary fragments of MBP described herein were determined in a thioflavin T fluorescence assay as follows: Lyophilized Aβ peptides were first resuspended with Me2SO to 2.5 mM, diluted to 12.5 μM in PBS, and then incubated at 37° C. with rocking either alone or with 1.56 μM MBP or bovine α-lactalbumin. Control samples containing 0.5% Me2SO and 1.56 μM MBP or lactalbumin in PBS were also included. At each time point, 100 μl samples of each reaction were placed in a 96-well microplate in triplicate, and 5 μl of 100 µM thioflavin T was added. The plate was mixed and incubated at 22° C. in the dark for 10 min. Fluorescence was measured at 490 nm with an excitation wavelength of 446 nm in a SpectraMax spectrofluorometer (Molecular Devices, Sunnyvale, Calif.) using SoftMax Pro control software. It is apparent that the method enables persons of skill in the art to determine the binding properties of MBP, variants thereof, and fragments thereof for any Aβ-peptide, including mutants thereof.

[7] = molecular target: T1, Aβ42WT; assay: Circular dichroism spectroscopy of Aβ42WT β-sheet formation; format: biochemical; conditions: MBP added to incubates, 37° C.
Source text: Aβ42 (□), MBP (□), Aβ42 with MBP (□).
The formation of β-sheet fibrils may be evaluated by circular dichroism (“CD”) spectroscopy. The technique is based on circularly polarized light. The secondary structure of proteins tends to “distort” the polarization toward the elliptical. The degree and direction of the distortion over a range of wavelengths produces spectra that are characteristic of the protein under examination and its secondary structure. One such method, suitable for use in embodiments of the present invention, is summarized below:
Preferably, purified protein is placed in detergent-free, low-salt buffer in a cuvette having a lightpath length on the order of 1 mm. The optimal concentration of the protein may be determined by standard techniques well-known in the art, and confirmed by comparing the spectrum over a range of concentrations, using an instrument (e.g., JASCO) and cuvette properly calibrated with a standard such as d-10-camphorsulfonic acid in water. To acquire a CD spectrum, the sample is scanned over a wavelength range of about 180-260 nm (spectral width approx. 1 nm). A suitable scan rate is of the order of 100 nm/min for a response time of about 2 seconds. Preferably, however, slower scan speeds (e.g., 5 nm/min, response time around 20 seconds) are used to reduce noise.

B1: myelin basic protein (protein)
chain: ASQKRPSQRHGSKYLATASTMDHARHGFLPRHRDTGILDSIGRFFGGDRGAPKRGSGKDSHHPARTAHYGSLPQKSHGRTQDENPVVHFFKNIVTPRTPPPSQGKGRGLSLSRFSWGAEGQRPGFGYGGRASDYKSAHKGFKGVDAQGTLSKIFKLGGRDSRSGSPMARR
notes: myelin basic protein, major form about 18.5 Kd (170 residues); purified protein
preference for Aβ40DI over Aβ40WT by immunoprecipitation [1]: showed no preference | binding by immunoprecipitation [2]: bound | binding to Dutch/Iowa CAA mutant Aβ relative to wild-type Aβ ([3]; SPR): bound more tightly | Kd ([3]; surface plasmon resonance): 16.9 nM | binding to wild-type Aβ40 [4]: Significantly weaker binding | interaction in co-immunoprecipitation [5]: interacts | inhibition of wild-type Aβ42 fibrillogenesis (thioflavin T) [6]: prevents fibrillization; also recorded: inhibited | Aβ42WT fibril formation by circular dichroism [7]: prevents fibril formation
